This passage reports Kd results from patent publication US20070134236A1 (Biogen, published 2007).

Experiment [1] deals with T1, human MCP-1 (human, UniProt P13500 24-99).
T1 construct: also called hMCP-1; huMCP-1
Briefly: KinExA, in solution. The protocol:
(§1) Polymethylmethacrylate beads activated with NHS were coated with 10 μg recombinant human MCP-1 in 1 ml buffer. The beads were packed into a column in the KinExA instrument for each sample. This packed bead column is able to capture free MCP mAb or Fab flowed through the column. The amount of free mAb or Fab in solution was determined using a secondary goat anti-mouse heavy and light chain IgG-Cy5 conjugate.
(§2) A fixed amount of 11K2 mAb, 1A1 mAb, 11K2 Fab, or 1A1 Fab was incubated with various amounts of human MCP-1, MCP-2 or MCP-3 for three hours. The amount of uncomplexed free antibody remaining in solution was determined by flowing these mixtures over the MCP-1-loaded bead column and labeling with the Cy5 secondary antibody. The fluorescent signal was plotted against the MCP concentration and the affinity was determined using a quadratic curve fit
On the technique in general: A kinetic exclusion assay measures how much of one partner remains free in solution.

Experiment [2] addresses T2, human MCP-2 (human, UniProt P80075 24-99).
T2 construct: also called hMCP-2; huMCP-2
T2 sequence (looked up): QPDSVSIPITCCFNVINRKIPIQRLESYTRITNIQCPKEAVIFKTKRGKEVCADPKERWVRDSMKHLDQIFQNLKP
Briefly: KinExA, in solution. The protocol:
as §1, §2

The target in experiment [3] is T2, human MCP-2. Kind of experiment: KinExA, in solution, Fab. The protocol:
(§3) 1 ml of MCP-1 at a concentration of 10 μg/ml in NaHCO₃ was added to an amount of beads equivalent to 1 ml of the original slurry. The beads were rocked overnight at 4° C. Beads were spun down and washed once with 1M Tris, pH 8.0, then resuspended in 1M Tris pH 8.0 with 1% BSA, 0.02% azide. The beads were rocked at room temperature for one hour then stored at 4° C. in this buffer for the duration of the experiments.
(§4) The KinExA 3000 measures protein-protein interaction in solution, and is ideally suited for measuring affinities of antibodies to antigens. In the typical experiment, antigen (MCP) is immobilized on a bead, antibody is flowed over a column of these beads at a given concentration, and the antibody that binds to the beads is detected using a fluorescent secondary. Antibody at a fixed concentration is then incubated with different concentrations of antigen in solution and the amount of free antibody is measured by flowing the mixture over the bead column quickly enough that no re-equilibration occurs between solution and solid phase. The amount of antibody remaining free is plotted against the concentration of antigen added and the data are fit to a quadratic equation to determine the affinity of the interaction in solution.
In these experiments, the only difference to the typical experiment described above is that instead of using intact antibody, a Fab fragment of 11K2 was used. Earlier KimExA experiments using the intact murine 11K2 mAb binding to MCP-1 and MCP-2 gave biphasic curves that the software could not interpret. This may be due to these proteins acting as dimers, so to eliminate the dimer/dimer interaction we generated Fab fragments. The binding of the 11K2 Fab fragments to MCP-1 and MCP-2 produced curves that the KinExA software could fit.

The target of experiment [4] is T1, human MCP-1. Kind of experiment: KinExA, in solution, Fab; Fab, not intact mAb. The protocol: as §3
as §4, with “solution. […]” for “solution.”

B1: Fab fragment of murine 11K2 (Fab, V domains shown)
VH: EVQLQQSGAELVKAGASVKLSCPASGLNIKDTYMHWVKQRPEQGLEWIGRIDPANGNTKFDPKFQGKATITADTSSNTAYLQLSSLTSEDTAVYYCARGVFGFFDYWGQGTTLTVSS
VL: DIQMTQSSSSFSVSLGDRVTITCKATEDIYNRLAWYQQKPGSAPRLLISGATSLETGVPSRFSGSGSGKDYTLSITSLQTEDVATYYCQQFWSAPYTFGGGTKLEIK
notes: also called 11K2 Fab; mu11K2 Fab
As a reminder, the Kd is the equilibrium constant for the complex coming apart. In the case of B1, the Kd in the experiment with human MCP-1 [1] stood at 11 pM; with human MCP-2 [2] it was 430 pM; with human MCP-2 [3], 430 pM; in the experiment with human MCP-1 [4], 11 pM.
